These results are taken from patent US20070287665A1 (SOCIETE DE CONSEILS DE RECHERCHES ET D APPLICATIONS …, published 2007).

Bridge positions count the residues as written; N and C are the ends. Square brackets hold non-standard residues; d marks the D form. Ends that are not written are not given here. dDip = N[C@@H](C(=O)O)C(c1ccccc1)c1ccccc1; Phe(4-Cl) = N[C@@H](Cc1ccc(Cl)cc1)C(=O)O; Phe(4-F) = N[C@@H](Cc1ccc(F)cc1)C(=O)O; 3Pal = N[C@@H](Cc1cccnc1)C(=O)O; Tle = CC(C)(C)[C@H](N)C(=O)O; Nal = naphthylalanine

Assay [1] deals with U-II receptors (rat thoracic aorta tissue) (rat) (UniProt P49684). In words: cell-based or functional assay.
Assay [2] has the same target. The assay is described as follows: method not described; presumably binding to rat aorta tissue / U-II receptors.
In assay [3] the target is T1, U-II receptors (rat thoracic aorta tissue) (rat, UniProt P49684 1-386).
T1 sequence (looked up): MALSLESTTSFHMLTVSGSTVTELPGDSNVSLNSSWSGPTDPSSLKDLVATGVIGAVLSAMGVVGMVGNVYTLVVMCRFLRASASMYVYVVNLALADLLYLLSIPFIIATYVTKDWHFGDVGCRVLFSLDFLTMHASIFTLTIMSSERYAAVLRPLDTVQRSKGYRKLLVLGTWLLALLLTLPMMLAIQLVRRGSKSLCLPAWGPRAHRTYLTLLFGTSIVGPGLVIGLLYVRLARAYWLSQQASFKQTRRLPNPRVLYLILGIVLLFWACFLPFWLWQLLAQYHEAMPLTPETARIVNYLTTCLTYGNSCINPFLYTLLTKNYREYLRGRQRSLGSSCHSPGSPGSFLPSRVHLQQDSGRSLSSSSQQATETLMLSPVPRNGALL
The assay is described as follows: cell-based or functional assay.

The target of assay [4] is T1, U-II receptors (rat thoracic aorta …). The assay is described as follows: cell-based or functional assay. This is another data set of the same source.

In the case of “Cpa-c[D-Cys-Pal-D-Trp-Lys-Val-Cys]-Cpa-amide (peptide)”, in assay [1], the IC50 against U-II-induced phasic contractions in circular rat thoracic aorta strips came to 0.1 µM. This molecule displayed a Kd in assay [2] of 0.24 µM.

B1: Cpa-c[D-Cys-Phe-Trp-Lys-Thr-Cys]-Val-NH2 (peptide)
peptide: [Phe(4-Cl)][dC]FWKTCV-NH2
modifications: disulfide 2-7; N-terminus assumed
SMILES: CC(C)[C@H](NC(=O)[C@@H]1CSSC[C@@H](NC(=O)[C@@H](N)Cc2ccc(Cl)cc2)C(=O)N[C@@H](Cc2ccccc2)C(=O)N[C@@H](Cc2c[nH]c3ccccc23)C(=O)N[C@@H](CCCCN)C(=O)N[C@@H]([C@@H](C)O)C(=O)N1)C(N)=O
Take B1: the “IC50 against U-II-induced phasic contractions in circular rat thoracic aorta strips” value in assay [3] was 0.002 µM.

B2: 4Fpa-D-Cys-Pal-D-Trp-Lys-Tle-Cys-Nal-NH2 (peptide)
peptide: [Phe(4-F)][dC][3Pal][dW]K[Tle]C[Nal]-NH2
modifications: disulfide 2-7 (inferred)
For the molecule B2, the “SRIF Antagonist IC50s (nM) against U-II Stimulation of Rat Aorta Phasic Contractions” value (shortened to “SRIF Antagonist IC50s (nM)”) in assay [4] is 100 nM.

B3: 4Fpa-D-Cys-Pal-D-Trp-Lys-Val-Cys-Nal-NH2 (peptide)
peptide: [Phe(4-F)][dC][3Pal][dW]KVC[Nal]-NH2
modifications: disulfide 2-7 (inferred)
Consider B3, for which the “SRIF Antagonist IC50s (nM)” value in assay [4] was determined as 1090 nM.

B4: Cpa-D-Cys-Tyr-D-Trp-Lys-Thr-Cys-Nal-NH2 (peptide)
peptide: XXYXKTCX
modifications: Cpa (p-chlorophenylalanine) at 1; D-Cys at 2; D-Trp at 4; Nal (naphthylalanine) at 8; C-terminal amide
As for B4, the “SRIF Antagonist IC50s (nM)” value in assay [4] worked out at 12 nM.

B5: Cpa-D-Cys-Pal-D-Trp-Lys-Tle-Cys-Nal-NH2 (peptide)
peptide: [Phe(4-Cl)][dC][3Pal][dW]K[Tle]C[Nal]-NH2
modifications: disulfide 2-7 (inferred)
Turning to B5, the “SRIF Antagonist IC50s (nM)” value in assay [4] was found to be 10 nM.

B6: Cpa-D-Cys-Pal-Trp-Lys-Thr-Cys-Cpa-NH2 (peptide)
peptide: [Phe(4-Cl)][dC][3Pal]WKTC[Phe(4-Cl)]-NH2
modifications: disulfide 2-7 (inferred)
As for B6, the “SRIF Antagonist IC50s (nM)” value in assay [4] was determined as 2 nM.

B7: Nal-D-Cys-His-D-Trp-Lys-Val-Cys-D-Dip-NH2 (peptide)
peptide: [Nal][dC]H[dW]KVC[dDip]-NH2
modifications: disulfide 2-7 (inferred)
B7: the “SRIF Antagonist IC50s (nM)” value in assay [4] was 1800 nM.

By Kd is commonly meant the free concentration of one partner at which half of the binding sites on the other are occupied at equilibrium, for simple one-to-one binding.
